Measured values as given in US5844093, “Anti-EGFR single-chain Fvs and anti-EGFR antibodies” (Merck Patent Gesellschaft mit Beschrankter Haftung, dated 1998).
Positions count from the first letter of the chain named. Blank lines part the entries; values can stand above or below the binder they belong to.

Assays:
[1] = molecular target: EGFR on EGFR-bearing tumor cells (human, UniProt P00533); test: cell ELISA on A431 and MDA MB 468 cells, bacterial supernatants
Procedure: The scFvs were tested by ELISA for binding to three tumor cell lines. […] Cell line SK-MEL-23 is a ganglioside-bearing melanoma cell line and was included as a negative control.
Cells were grown to confluency in poly-D-lysine-treated 96 well tissue culture trays (Nunc). Cells were washed with DMEM and blocked at 37° C. for 2 h with PBS containing 2.5% BSA. After aspiration, supernatants were added to each well together with an equal volume of 2xYT media containing 4% milk powder and incubated at 40C for 1 h. Bound scFvs were detected as described above.

[2] = molecular target: hen egg lysozyme (hen, UniProt P00698); test: ELISA, bacterial supernatants
Procedure: (§1) The scFvs were tested by ELISA for binding to plastic and to a panel of unrelated proteins (ovalbumin, hen egg lysozyme, cytochrome c, glyceraldehyde 3-phosphate dehydrogenase, CBA albumin, and BSA).
(§2) Supernatants containing scFvs were diluted in PBSM and added to the plates. Bound scFvs were detected using 9E10 antibody as described above. Supernatants were also tested for binding to a panel of unrelated proteins and plastic. ELISA plates were coated overnight at 100 µg/ml with ovalbumin, hen egg lysozyme, cytochrome c, glyceraldehyde 3-phosphate dehydrogenase, murine albumin (CBA strain), and BSA. Undiluted supernatants containing 2% milk powder were added in duplicate to the coated plates and bound scFvs detected as described above.

[3] = molecular target: BSA (Bos taurus (Bovine), UniProt P02769); test: ELISA, bacterial supernatants
Procedure: as §1, §2

[4] = molecular target: ovalbumin (Gallus gallus (Chicken), UniProt P01012); test: ELISA, bacterial supernatants
Procedure: as §1, §2

[5] = molecular target: murine albumin (CBA strain) (murine, UniProt P07724); test: ELISA, bacterial supernatants
Procedure: as §1, §2

[6] = molecular target: purified EGFR (human, UniProt P00533); test: ELISA, purified EGFR, bacterial supernatants
Procedure: Binding of scFvs to EGFR. The concentrations of scFvs in bacterial supernatants were estimated and the scFvs tested by ELISA for binding to purified EGFR.
Antigen-binding ELISAs were carried out with EGFR-coated plates (2.5 µg/ml). Supernatants containing scFvs were diluted in PBSM and added to the plates. Bound scFvs were detected using 9E10 antibody as described above. Supernatants were also tested for binding to a panel of unrelated proteins and plastic. ELISA plates were coated overnight at 100 µg/ml with ovalbumin, hen egg lysozyme, cytochrome c, glyceraldehyde 3-phosphate dehydrogenase, murine albumin (CBA strain), and BSA. Undiluted supernatants containing 2% milk powder were added in duplicate to the coated plates and bound scFvs detected as described above.

B3: scFv No. S4 2D (scFv, V domains shown)
VH: EVKLQQSGPELVKPGASVKMSCKASGYAFISFVMHWVKQKPGQGLEWIGFINPYNDGTKYNEKFKDKATLTSDKSSSTAYMELSSLTSEDSAVYYCASGDYDRAMDYWGQGTTVTVSS
VL: DIELTQSPTTMAASPGEKITITCSASSSISSNYLHWYQQKPGFSPKLLIYRTSNLASGVPARFSGSGSGTSYSLTIGTMEAEDVATYYCQQGSSIPRTFGGGTKLEIKR
- binding result [2]: no binding
- binding result [3]: no binding
- binding result [4]: no binding
- binding result [5]: no binding

B4: scFv No. L2 11C (scFv, V domains shown)
VH: QVQLQESGPELVRPGASVKMSCKASGYTFTTYWIHWMKQRPGQGLQWIGMIDPSNSETRLNQNFRDKATLSVDKSSNKAYMQLSSLTSEDSAIYYCARWDYGSGHFDYWGQGTTVTVSS
VL: DIELTQSPASLAASVGETVTITCRASENIYYSLAWYQQKQGKSPQLLIYSASALEDGVPSRFSGSGSGTQYSLKINNMQPEDTATYFCKQTYDVPWTFGGGTKLEIKR
- binding result [2]: no binding
- binding result [3]: no binding
- binding result [4]: no binding
- binding result [5]: no binding

Second part, the binder after the results:

- binding result [1]: binds
- binding result [2]: no binding
- binding result [3]: no binding
- binding result [4]: no binding
- binding result [5]: no binding
- binding result [6]: binds
B1: scFv No. L2 12B (scFv, V domains shown)
VH: QVQLQESGPELVKPGALVKISCKASGYTFTSYWMHWVKQRPGQGLEWIGEIDPSDSYTNYNQKFKGKATLTVDKSSNTAYMQLSSLTSEDSAVYYCARSDYGSSHFDYWGQGTTVTVSS
VL: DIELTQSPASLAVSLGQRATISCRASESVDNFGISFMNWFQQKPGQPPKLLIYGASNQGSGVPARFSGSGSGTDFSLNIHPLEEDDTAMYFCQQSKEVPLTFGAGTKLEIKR

- binding result [2]: no binding
- binding result [3]: no binding
- binding result [4]: no binding
- binding result [5]: no binding
B2: scFv No. L3 11D (scFv, V domains shown)
VH: B1 VH with Q1E, E6Q, P9A, L17S, I20L, N77S
VL: not shown
